Test results reported in article PMC5655127.

Biological target: KpBest^ΔC11 L177T (Klebsiella pneumoniae)
Assay: crystal structure; KpBest^ΔC11 L177T, sitting-drop vapor diffusion at 20°C, 0.05 M zinc acetate, 6% ethylene glycol, 0.1 M sodium cacodylate pH 6.0, 6.6% PEG 8000; solved to 3.1 Å by molecular replacement with 4WD8

Work on KpBest^ΔC11 L177T (natural protein) yielded a stoichiometry N of 5.
